Data on two molecules can be found in patent publication US20250043019A1 (Janssen / Centocor, published 2025).

For experiment [1], the target named is T1, human CD79b on the cell surface (human, UniProt P40259 29-229).
T1 sequence: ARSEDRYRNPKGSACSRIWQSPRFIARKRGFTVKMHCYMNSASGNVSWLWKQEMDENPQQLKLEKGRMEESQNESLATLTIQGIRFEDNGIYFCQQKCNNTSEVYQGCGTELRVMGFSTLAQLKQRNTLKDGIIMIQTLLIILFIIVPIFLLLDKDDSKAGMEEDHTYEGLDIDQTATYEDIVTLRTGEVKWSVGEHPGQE
As to the kind of experiment: cell-based or functional assay.

For experiment [2], the target named is T1, human CD79b on the cell surface. Briefly: cell-based or functional assay. The source holds these as a separate data set.
Experiment [3] shares this target. As to the kind of experiment: cell-based or functional assay. The source holds these as a separate data set.
Experiment [4] has the same target. Briefly: cell-based or functional assay. The source holds these as a separate data set.
Experiment [5] shares this target. As to the kind of experiment: flow cytometry, HBL-1 cells, 1 h 37 C. Here is the method: (§1) All cells were washed with BD stain buffer (BD Biosciences; Cat #554657), centrifuged at 1200 RPM for 3 minutes, with supernatant discarded. Cells were then stained for 20 minutes at 4° C. with BD stain buffer containing AlexaFluor 647 labeled anti-human IgG secondary antibody (Jackson Immuno; Cat #109-606-098) at a 1:200 dilution along with Aqua Fixable Live/Dead stain (Invitrogen; Cat #L34957) at a 1:400 dilution. All cells were washed with BD stain buffer (BD Biosciences; Cat #554657), centrifuged at 1200 RPM for 3 mins, with supernatant discarded. Cells were analyzed using Intellicyt (Sartorius) flow cytometer and mean fluorescent intensity (MFI) was generated using Forcyt software (Sartorius). MFI was graphed and EC50 values generated using GraphPad PRISM v.8. Dose response curves were generated by transforming the x axis values using the formula […]. Data was then graphed using non-linear regression curve fit analysis “log(agonist) vs. response-variable slope (four parameter)”.
On the technique in general: A flow cytometer gives signals particle by particle.

The target is the same in experiment [6]. As to the kind of experiment: flow cytometry, Carnaval cells, 1 h 37 C. On the procedure: as §1
Experiment [7] concerns the target T2, cynomolgus monkey CD79b antigen (cynomolgus monkey).
T2 construct: also called cyno CD79b; CD9W1.001
Briefly: SPR Biacore 8k, cyno CD79b injected up to 3000 nM. On the procedure:
(§2) General Protocol for SPR Affinity Assessment: Affinity assessment of the bispecific trispecific constructs against human CD79b were measure using recombinantly expressed extracellular domain of CD79b short and long isoforms (CD9W7.001 and CD9W8.001, respectively) by Surface Plasmon Resonance (SPR) using a Biacore 8k SPR system (Biacore) at 25° C. in HBSP+ buffer. Cross-reactivity of the same antibody panel was also assessed against cyno and mouse antigens (CD9W1.001 and CD9W105.001, respectively). Briefly, a C1 sensor chip was immobilized with anti-human Fc (target immobilization levels of >400 RU) using vendor recommended amino coupling protocol. […] The association and dissociation phases were measured for 2 or 3 minutes and 30 minutes, respectively.
(§3) The raw binding sensorgrams were processed using Biacore Insight software (Biacore) by double-referencing and the processed sensorgrams were analyzed for cross-reactivity and fitted to a 1:1 Langmuir model to obtain on-rates, off-rates and affinities.

Experiment [8] has as its target T3, recombinant extracellular domain of human CD79b, short isoform (human, UniProt P40259 29-159).
T3 chain: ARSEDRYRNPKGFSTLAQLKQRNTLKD
As to the kind of experiment: SPR Biacore 8k, antibody captured by anti-Fc, 25 C. On the procedure: as §2, §3
A general note: Surface plasmon resonance follows binding to a sensor surface in real time, without labels.

Experiment [9] addresses T4, recombinant extracellular domain of human CD79b, long isoform (human, UniProt P40259 29-159).
T4 construct: also called hu CD79b long
T4 sequence: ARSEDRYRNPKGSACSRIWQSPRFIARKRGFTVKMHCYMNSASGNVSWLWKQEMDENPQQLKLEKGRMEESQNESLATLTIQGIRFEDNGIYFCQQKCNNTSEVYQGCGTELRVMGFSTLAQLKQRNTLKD
As to the kind of experiment: SPR Biacore 8k, antibody captured by anti-Fc, 25 C. Here is the method:
as §2, §3

Experiment [10] has as its target T1, human CD79b on the cell surface. Briefly: flow cytometry, HBL-1 cells, 1 h 37 C; control row of Table 10, same value as Table 8. Here is the method: as §1
Experiment [11] shares this target. As to the kind of experiment: flow cytometry, Carnaval cells, 1 h 37 C; control row of Table 10, same value as Table 8. Here is the method:
as §1

Experiment [12] addresses T5, human CD79b and CD20 co-expressed on the surface of B-lymphoma cell lines or primary B cells (human, UniProt P11836 1-297).
T5 sequence 1: T1 sequence
T5 sequence 2: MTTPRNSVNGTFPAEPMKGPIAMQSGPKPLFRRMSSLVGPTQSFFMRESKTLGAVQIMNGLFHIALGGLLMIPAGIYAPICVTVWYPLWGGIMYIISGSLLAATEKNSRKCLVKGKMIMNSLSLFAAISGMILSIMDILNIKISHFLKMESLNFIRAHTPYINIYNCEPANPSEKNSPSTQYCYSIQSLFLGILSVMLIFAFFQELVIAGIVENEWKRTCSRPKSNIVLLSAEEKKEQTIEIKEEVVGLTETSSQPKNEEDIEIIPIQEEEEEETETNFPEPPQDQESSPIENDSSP
As to the kind of experiment: cell-based or functional assay.

The target in experiment [13] is T5, human CD79b and CD20 co-expressed on …. As to the kind of experiment: cell-based or functional assay. The source holds these as a separate data set.
The target is the same in experiment [14]. As to the kind of experiment: cell-based or functional assay. The source holds these as a separate data set.
Experiment [15] has the same target. Briefly: cell-based or functional assay. The source holds these as a separate data set.
For experiment [16] the target is unchanged. Briefly: cell-based or functional assay. The source holds these as a separate data set.
The target is the same in experiment [17]. Briefly: flow cytometry, HBL-1 cells (CD79b+ CD20+), 1 h 37 C. On the procedure: as §1
For experiment [18] the target is unchanged. Briefly: flow cytometry, Carnaval cells (CD79b+ CD20+), 1 h 37 C. Here is the method:
as §1

Experiment [19] shares this target. As to the kind of experiment: flow cytometry, OCI-LY10 cells (CD79b+ CD20+), 1 h 37 C. Here is the method:
as §1

B1: 79C3B651 CD79bxCD3 bispecific antibody (bispecific antibody, human IgG1, kappa, L234A L235A)
heavy: QVQLQESGPGLVKPSQTLSLTCTVSGVSISNYYWSWIRQPPGKGLEWIGRISPSGRTNYNPSLKSRVTMSLDASKNQFSLKLSSVTAADTAVYYCARGEYSGTYSYSFDIWGQGTMVTVSSASTKGPSVFPLAPSSKSTSGGTAALGCLVKDYFPEPVTVSWNSGALTSGVHTFPAVLQSSGLYSLSSVVTVPSSSLGTQTYICNVNHKPSNTKVDKKVEPKSCDKTHTCPPCPAPEAAGGPSVFLFPPKPKDTLMISRTPEVTCVVVSVSHEDPEVKFNWYVDGVEVHNAKTKPREEQYNSTYRVVSVLTVLHQDWLNGKEYKCKVSNKALPAPIEKTISKAKGQPREPQVYTLPPSREEMTKNQVSLSCAVKGFYPSDIAVEWESNGQPENNYKTTPPVLDSDGSFFLVSKLTVDKSRWQQGNVFSCSVMHEALHNRFTQKSLSLSPGK
light: DIQMTQSPSSLSASVGDRVTITCRSSQSLFDSDDGNTYLDWFQQKPGQSPKLLIQTLSYRASGVPSRFSGSGSGTDFTLTISSLQPEDFATYYCMQRMEFPLTFGGGTKVEIKRTVAAPSVFIFPPSDEQLKSGTASVVCLLNNFYPREAKVQWKVDNALQSGNSQESVTEQDSKDSTYSLSSTLTLSKADYEKHKVYACEVTHQGLSSPVTKSFNRGEC
chain: EIVLTQSPATLSASPGERVTLSCSASSSVSYMNWYQQKPGQAPRRWIYDSSKLASGVPARFSGSGSGRDYTLTISSLEPEDFAVYYCQQWSRNPPTFGGGTKVEIKGGSEGKSSGSGSESKSTGGSQVQLVQSGAEVKKPGSSVKVSCKASGYTFTRSTMHWVKQAPGQGLEWIGYINPSSAYTNYNQKFQGRVTLTADKSTSTAYMELSSLRSEDTAVYYCASPQVHYDYAGFPYWGQGTLVTVSSEPKSSDKTHTCPPCPAPEAAGGPSVFLFPPKPKDTLMISRTPEVTCVVVSVSHEDPEVKFNWYVDGVEVHNAKTKPREEQYNSTYRVVSVLTVLHQDWLNGKEYKCKVSNKALPAPIEKTISKAKGQPREPQVYTLPPSREEMTKNQVSLWCLVKGFYPSDIAVEWESNGQPENNYKTTPPVLDSDGSFFLYSKLTVDKSRWQQGNVFSCSVMHEALHNHYTQKSLSLSPGK
notes: IgG1 bispecific; CD79b Fab arm plus CD3 scFv-Fc arm; also called 79C3B651 bsAb; CD9B643 x CD3B2030-N106A
Regarding B1, in experiment [1], the “IC50, T-cell killing of HBL-1 (Incucyte)” value came to 0.0325 nM. The “IC50, T-cell killing of OCI-Ly10 (Incucyte)” value in experiment [2] was 4.7 nM. Further, in experiment [3], the “IC50, CARNAVAL killing, 72 h (FACS)” value came out at 0.25 nM; the “IC50, HBL-1 killing, 72 h (FACS)” value came to 2.2 nM; the “IC50, OCI-LY10 killing, 72 h (FACS)” value is greater than 100 nM. Moreover, in experiment [4], the “Cmax (maximum cytotoxicity), donor 1” value was 5%; the “Cmax (maximum cytotoxicity), donor 2” value was 13%; the “Cmax (maximum cytotoxicity), donor 3” value was found to be 34%; the “EC50, autologous B-cell depletion, donor 3” value worked out at 17 nM. Further, in experiment [5], a half-maximal response (EC50) required 15 nM. This molecule registered an EC50 in [6] of 12 nM. Moreover, the Kd in experiment [7] was greater than 3000 nM. In addition, the Kd in [8] stood at 0.35 nM. Further, in experiment [9], the Kd is 0.052 nM. The molecule also had a concentration giving a half-maximal response (EC50) in [10] of 15 nM. The concentration for a half-maximal effect (EC50) in [11] worked out at 12 nM.

B2: C923B99 CD79bxCD20xCD3 trispecific antibody (other)
heavy: B1 heavy
light: B1 light
chain: EIVLTQSPATLSASPGERVTLSCSASSSVSYMNWYQQKPGQAPRRWIYDSSKLASGVPARFSGSGSGRDYTLTISSLEPEDFAVYYCQQWSRNPPTFGGGTKVEIKGGSEGKSSGSGSESKSTGGSQVQLVQSGAEVKKPGSSVKVSCKASGYTFTRSTMHWVKQAPGQGLEWIGYINPSSAYTNYNQKFQGRVTLTADKSTSTAYMELSSLRSEDTAVYYCASPQVHYDYAGFPYWGQGTLVTVSSEPKSSDKTHTCPPCPAPEAAGGPSVFLFPPKPKDTLMISRTPEVTCVVVSVSHEDPEVKFNWYVDGVEVHNAKTKPREEQYNSTYRVVSVLTVLHQDWLNGKEYKCKVSNKALPAPIEKTISKAKGQPREPQVYTLPPSREEMTKNQVSLWCLVKGFYPSDIAVEWESNGQPENNYKTTPPVLDSDGSFFLYSKLTVDKSRWQQGNVFSCSVMHEALHNHYTQKSLSLSPGKGGSEGKSSGSGSESKSTGGSAIQLTQSPSSLSASVGDRVTITCRASSSVSYIHWFQQKPGKAPKPLIYATSNLASGVPSRFSGSGSGTDFTLTISSLQPEDFATYYCQQWTSNPPTFGQGTKLEIKGGSEGKSSGSGSESKSTGGSQVQLVQSGAEVKKPGSSVKVSCKASGYTFTSYNMHWVRQAPGQGLEWMGAIYPGNGDTSYAQKFQGRVTITADKSTSTAYMELSSLRSEDTAVYYCARSTYYGGDWYFNVWGQGTLVTVSS
notes: Trispecific IgG1; also called CD9B643 / CD3B2030-N106A-scFv-LH-C20B22
Turning to B2, the “IC50, T-cell killing of HBL-1 (Incucyte)” value in [12] was 0.0692 nM. The “IC50, T-cell killing of OCI-Ly10 (Incucyte)” value in [13] came to 5.6 nM. The “IC50, CARNAVAL killing (Incucyte)” value in experiment [14] worked out at 0.285 nM. In [15], the “IC50, CARNAVAL killing, 72 h (FACS)” value turned out to be 0.17 nM; the “IC50, HBL-1 killing, 72 h (FACS)” value is 1.68 nM; the “IC50, OCI-LY10 killing, 72 h (FACS)” value stood at 16.9 nM. Moreover, in experiment [16], the “Cmax (maximum cytotoxicity), donor 1” value stood at 35%; the “Cmax (maximum cytotoxicity), donor 2” value worked out at 67%; the “Cmax (maximum cytotoxicity), donor 3” value is 66%; the “EC50, autologous B-cell depletion, donor 2” value is 9 nM. Further, the “EC50, autologous B-cell depletion, donor 3” value in [16] is 23 nM. The same molecule gave a dissociation constant (Kd) in [7] greater than 3000 nM. Moreover, the Kd in experiment [8] was found to be 0.27 nM. The Kd in experiment [9] was 0.04 nM. This molecule registered an EC50 in experiment [17] of 8 nM. The midpoint of the response in [18], the EC50, lay at 6 nM. In experiment [19], this molecule displayed an EC50 of 2 nM.

By EC50 is commonly meant the concentration at which the effect is half-maximal. Broadly, the Kd is the free concentration of one partner at which half of the binding sites on the other are occupied at equilibrium, for simple one-to-one binding.
